Patent US20090068110A1, “ANTIBODIES TO INSULIN-LIKE GROWTH FACTOR RECEPTOR” (Genentech, Inc., priority 2006, published 2009)

How the values were obtained:
A549 tumors = experiment: A549 lung-cancer xenograft model; assay type: in vivo, athymic nude mice; settings: h10H5.vX 5 mg/kg IP two times per week; vinorelbine 9 mg/kg weekly for first three weeks
From the text: (§1) Female nude (nu/nu) and C.B-17 SCID beige mice were obtained from Charles Rivers Laboratories, Inc. (Hollister, Calif.). Animals were about six to eight weeks old and weighed about 25 grams each. Mice were acclimated to study conditions for at least three days before tumor-cell inoculations. The animals were housed in standard rodent micro-isolator cages. Only animals that appeared to be healthy and that were free of obvious abnormalities were used for the study. Each mouse was given a subcutaneous injection of SK-N-AS cells (10 million), SW527 cells (5 million), Colo205 cells (5 million), or A549 cells (5 million) into the dorsal right flank in a volume of 0.2 mL. Data collected from each experimental group were expressed as mean tumor volume±the standard error of the mean (SEM). Tumors were monitored until they reached a mean volume of 130-260 mm3. […] Tumors were measured twice weekly throughout the experiment starting on the first day of treatment. Tumor volumes were measured in two dimensions (length and width) using ULTRA CAL-IV™ calipers (Model 54-10-111, Fred V. Fowler Company, Inc.; Newton, Mass.), and calculated using the formula of: […]
(§2) Tumor-inhibition and body-weight graphs were plotted using […]™ 3.6 software (Synergy Software; Reading, Pa.). […]

SW527 xenograft tumors = experiment: SW527 breast-cancer xenograft model; assay type: in vivo, SCID beige mice
From the text: as §1, §2
Tumor incidence was determined by the number of measurable tumors in each group. […]

[1] = system: Colo205-e215 xenograft tumors; experiment: Colo205-e215 xenograft, combination with 5-FU; assay type: in vivo, athymic nude mice; settings: h10H5.vX weekly IP; 5-FU 100 mg/kg weekly for first three weeks
From the text: as §1, §2

[2] = molecular target: human IGF-1R-ECD (secreted recombinant extracellular domain, amino acids 1-902, tagged with 10 or 12 histidine residues at the carboxyl terminus) (human) (UniProt P08069); experiment: competition ELISA: antibody pre-incubated on plate-coated human IGF-1R-ECD, then biotinylated IGF-I (blocked ligand), streptavidin-HRP, A450
[3] = molecular target: human IGF-1R-ECD (secreted recombinant extracellular domain, amino acids 1-902, tagged with 10 or 12 histidine residues at the carboxyl terminus) (human) (UniProt P08069); experiment: solid-phase binding assay: serially diluted antibody on plate-coated human IGF-1R-ECD, then biotinylated IGF-I (blocked ligand), streptavidin-HRP, A450; n=3
[4] = molecular target: human IGF-1R-ECD (secreted recombinant extracellular domain, amino acids 1-902, tagged with 10 or 12 histidine residues at the carboxyl terminus) (human) (UniProt P08069); experiment: solid-phase binding assay: serially diluted antibody on plate-coated human IGF-1R-ECD, then biotinylated IGF-II (blocked ligand), streptavidin-HRP, A450; n=3
[5] = CHF patients, enalapril in addition to conventional therapy; cited from earlier work
[6] = molecular target: T1, IGF-1R α- and β-subunit in SK-N-AS cells (Homo sapiens, UniProt P08069); experiment: h10H5-induced IGF-1R down-regulation with proteasome or lysosomal protease inhibitors; assay type: cell-based; settings: one hour pretreatment; 30 μM bortezomib or 5 μM pepstatin A and 10 μg/ml leupeptin
T1 construct: h10H5-induced IGF-1R downregulation, SK-N-AS cells were pretreated; endogenous in cells; host or cells: SK-N-AS
Description: Both proteasome and lysosome pathways have been implicated in ligand-mediated IGF-1R degradation. To examine whether these pathways contribute to h10H5-induced IGF-1R downregulation, SK-N-AS cells were pretreated with either a combination of 5 μM of pepstatin A and 10 μg/ml of leupeptin or 30 μM of VELCADE® bortezomib for one hour, and subsequently exposed to h10H5 treatment for 1 to 8 hours in the presence of protease or protesome inhibitors. Cell lysates were analyzed for IGF-1R α-subunit and β-subunit by Western blotting. β-actin was used as a loading control. Because the extracellular (ECD) and intracellular (ICD) domains are exposed to different cellular environments during the internalization and trafficking processes, antibodies that specifically react to the α-subunit that is a major part of ECD or the C-terminus of the β-subunit, and therefore a part of ICD, were used for Western blot analysis.

[7] = molecular target: human IGF-1R-ECD (secreted recombinant extracellular domain, amino acids 1-902, tagged with 10 or 12 histidine residues at the carboxyl terminus) (human) (UniProt P08069); experiment: BIACORE surface plasmon resonance: IGF-1R immobilized on CM5 chip (about 500 RU), Fab injected 500-3.1 nM, 25 C, 1:1 Langmuir model
[8] = molecular target: murine IGF-1R-ECD (murine) (UniProt Q60751); experiment: as above
[9] = molecular target: human IGF-1R-ECD (secreted recombinant extracellular domain, amino acids 1-902, tagged with 10 or 12 histidine residues at the carboxyl terminus) (human) (UniProt P08069); experiment: BIACORE surface plasmon resonance: IGF-1R immobilized on CM5 chip (about 500 RU), IgG injected 250-0.78 nM, 25 C, 1:1 Langmuir model (apparent affinity)
cynomolgus-monkey IGF-1R = cynomolgus-monkey IGF-1R (cynomolgus monkey, UniProt G7P9I7 31-908); experiment: as above
Sequence of cynomolgus-monkey IGF-1R (G7P9I7 entry or part of it): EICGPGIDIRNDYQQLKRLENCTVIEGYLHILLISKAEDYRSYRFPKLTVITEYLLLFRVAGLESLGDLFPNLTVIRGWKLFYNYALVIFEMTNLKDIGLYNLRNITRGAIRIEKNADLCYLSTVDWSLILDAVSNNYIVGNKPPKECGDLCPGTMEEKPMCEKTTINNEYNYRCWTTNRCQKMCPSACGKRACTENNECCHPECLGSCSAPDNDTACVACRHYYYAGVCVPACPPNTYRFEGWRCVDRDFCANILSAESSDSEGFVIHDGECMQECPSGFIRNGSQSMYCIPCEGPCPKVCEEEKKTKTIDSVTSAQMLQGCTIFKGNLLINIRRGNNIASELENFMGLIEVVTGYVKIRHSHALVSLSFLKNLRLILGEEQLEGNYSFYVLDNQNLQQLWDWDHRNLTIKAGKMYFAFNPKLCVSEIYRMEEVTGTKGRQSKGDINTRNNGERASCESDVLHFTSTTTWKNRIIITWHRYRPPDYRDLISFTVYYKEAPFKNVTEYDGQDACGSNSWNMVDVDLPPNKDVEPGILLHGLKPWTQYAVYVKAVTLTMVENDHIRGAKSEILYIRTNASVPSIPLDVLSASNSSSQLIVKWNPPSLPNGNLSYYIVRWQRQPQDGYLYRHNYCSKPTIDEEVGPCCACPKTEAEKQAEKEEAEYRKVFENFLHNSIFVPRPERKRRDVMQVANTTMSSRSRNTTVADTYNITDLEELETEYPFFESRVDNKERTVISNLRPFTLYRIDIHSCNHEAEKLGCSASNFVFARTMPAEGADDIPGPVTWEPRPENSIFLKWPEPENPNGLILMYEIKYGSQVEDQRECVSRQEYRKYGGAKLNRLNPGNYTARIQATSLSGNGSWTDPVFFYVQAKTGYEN

CCC1=C[C@@H]2CN(C1)Cc1c([nH]c3ccccc13)[C@@](C(=O)OC)(c1cc3c(cc1OC)N(C)[C@H]1[C@@](O)(C(=O)OC)[C@H](OC(C)=O)[C@]4(CC)C=CCN5CC[C@]31[C@@H]54)C2 [vinorelbine]
inhibition of tumor growth (TGI) at day 21 (A549 tumors): 45%

CC(=O)O[C@@]12CO[C@@H]1C[C@H](O)[C@@]1(C)C(=O)[C@H](O)C3=C(C)[C@@H](OC(=O)[C@H](O)[C@@H](NC(=O)OC(C)(C)C)c4ccccc4)C[C@@](O)([C@@H](OC(=O)c4ccccc4)[C@H]21)C3(C)C [docetaxel]
TGI on Day 14 (SW527 xenograft tumors; Example 5, h10H5 5 mg/kg weekly IP, docetaxel 12.5 mg/kg IV Days 0, 4, 8, B20-4.1 10 mg/kg weekly IP): 54%
body weight losses leading to euthanasia (SW527 xenograft tumors; single-agent docetaxel 12.5 mg/kg, two mice Day 8, two mice Day 12): > 20%

O=c1[nH]cc(F)c(=O)[nH]1 [5-FU, 5-fluorouracil]
% TGI at day 27 [1]: 53%

IR3, commercial anti-IGF-1R antibody
IC50 (read off the curve) [2]: 5 nM
IC50 (read off the curve) [3]: 8 µg/mL
IC50 (read off the curve) [4]: 5 µg/mL

CCOC(=O)[C@H](CCc1ccccc1)N[C@@H](C)C(=O)N1CCC[C@H]1C(=O)O [enalapril]
reduction of the risk of developing cardiac cachexia [5]: 19%

CC(C)C[C@H](NC(=O)[C@H](Cc1ccccc1)NC(=O)c1cnccn1)B(O)O [VELCADE® bortezomib, bortezomib]
effect on h10H5-induced IGF-1R subunit downregulation [6]: more effective in preventing β-subunit downregulation

B1: YW95.6 (Fab, V domains shown)
VH: EVQLVESGGGLVQPGGSLRLSCAASGFTFSSYAMSWVRQAPGKGLEWVSRISPSGGSTYYADSVKGRFTISADTSKNTAYLQMNSLRAEDTAVYYCAREEYYYWGAMDVWGQGTLVTVSS
VL: DIQMTQSPSSLSASVGDRVTITCRASQSISSYLAWYQQKPGKAPKLLIYGASSRASGVPSRFSGSGSGTDFTLTISSLQPEDFATYYCQQYYSSPLTFGQGTKVEIK
Kd [7]: 7.3 nM
Kd [8]: 8.6 nM

B2: chimeric 10H5-IgG (antibody, V domains shown)
VH: QVQLQQPGAELVKPGASVTLSCKASGYTFTRFWIHWVKQRPGQGLEWIGEINPSNGRTNYNENFKNKATLTVDTSSSTAYMQLSSLTSEVSVVYYCARGGRLDQWGQGTT
VL: DIVMTQSQKFMSTSLGDRVSVTCKASQNVGSNVAWYQQKPGQSPEALIYSASYRYSGVPDRFTGSGSGTDFTLTISNVQSEDLAEYFCHQYNNYPYTFGGGTKVEIKR
notes: also called human chimeric 10H5
Kd [9]: 0.1 nM
Kd (cynomolgus-monkey IGF-1R): 0.13 nM
